Experimental data published in US20140105902A1 (SAMSUNG ELECTRONICS, published 2014).

Target: c-Met, endogenous in human cell lines (NCI-H441, EBC-1, MKN45, HCC827 ER15, HEK293) (human, UniProt P08581 25-1390)
Assay: cell-based or functional assay

c-Met, endogenous in human cell lines (NCI-H441, EBC-1, MKN45, HCC827 ER15, HEK293), sequence (P08581 25-1390): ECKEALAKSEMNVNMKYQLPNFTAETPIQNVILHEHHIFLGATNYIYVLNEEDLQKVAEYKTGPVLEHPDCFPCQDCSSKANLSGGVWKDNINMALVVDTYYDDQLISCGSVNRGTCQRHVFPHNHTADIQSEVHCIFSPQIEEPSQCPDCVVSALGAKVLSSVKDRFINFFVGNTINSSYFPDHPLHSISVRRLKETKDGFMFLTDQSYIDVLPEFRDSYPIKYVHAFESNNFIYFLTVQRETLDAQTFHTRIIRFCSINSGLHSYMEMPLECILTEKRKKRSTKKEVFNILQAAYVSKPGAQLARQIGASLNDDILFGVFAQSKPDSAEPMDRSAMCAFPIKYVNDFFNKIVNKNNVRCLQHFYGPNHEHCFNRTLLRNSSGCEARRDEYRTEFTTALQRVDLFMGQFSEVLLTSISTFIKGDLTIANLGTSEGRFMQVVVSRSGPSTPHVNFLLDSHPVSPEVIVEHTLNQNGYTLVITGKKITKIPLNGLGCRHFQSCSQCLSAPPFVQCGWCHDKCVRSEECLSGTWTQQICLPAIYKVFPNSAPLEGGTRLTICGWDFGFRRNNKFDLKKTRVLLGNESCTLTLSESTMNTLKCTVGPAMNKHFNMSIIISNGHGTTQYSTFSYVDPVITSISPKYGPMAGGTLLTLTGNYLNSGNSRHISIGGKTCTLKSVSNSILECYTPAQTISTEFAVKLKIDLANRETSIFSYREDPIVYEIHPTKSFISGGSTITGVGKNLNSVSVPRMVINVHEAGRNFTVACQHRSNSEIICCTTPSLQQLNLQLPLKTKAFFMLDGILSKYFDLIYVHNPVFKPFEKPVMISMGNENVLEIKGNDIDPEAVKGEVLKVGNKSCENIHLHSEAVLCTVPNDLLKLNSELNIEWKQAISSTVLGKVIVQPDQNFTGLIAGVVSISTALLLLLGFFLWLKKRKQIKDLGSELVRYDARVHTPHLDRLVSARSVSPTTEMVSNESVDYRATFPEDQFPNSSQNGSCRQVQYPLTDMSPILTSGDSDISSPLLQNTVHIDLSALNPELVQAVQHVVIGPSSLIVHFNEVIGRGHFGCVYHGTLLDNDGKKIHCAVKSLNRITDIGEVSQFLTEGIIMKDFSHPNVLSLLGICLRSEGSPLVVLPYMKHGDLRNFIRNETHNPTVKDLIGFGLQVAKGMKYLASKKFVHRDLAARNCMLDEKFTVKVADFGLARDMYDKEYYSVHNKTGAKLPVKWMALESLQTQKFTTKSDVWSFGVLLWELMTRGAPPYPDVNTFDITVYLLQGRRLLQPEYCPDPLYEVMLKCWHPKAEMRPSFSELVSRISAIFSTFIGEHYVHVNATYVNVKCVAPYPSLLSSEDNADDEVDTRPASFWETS

B1: anti-c-Met antibody L3-1Y (huAbF46-H4-A1 (U6-HC7)) (antibody, V domains shown)
VH: EVQLVESGGGLVQPGGSLRLSCAASGFTFTDYYMSWVRQAPGKGLEWLGFIRNKANGYTTEYSASVKGRFTISRDNSKNTLYLQMNSLRAEDTAVYYCARDNWFAYWGQGTLVTVSS
VL: DIQMTQSPSSLSASVGDRVTITCKSSQSLLASGNQNNYLAWYQQKPGKAPKMLIIWASTRVSGVPSRFSGSGSGTDFTLTISSLQPEDFATYYCQQSYSRPYTFGQGTKVEIKR
total c-Met level by ELISA, Cbl siRNA-transformed EBC-1 cells, 5 ug/ml, 24 h, relative to control IgG: ~30%
